Measured values taken from patent US20250171512A1.

B1: FGF21 P152-H153 deleted (SEQ ID NO: 135), Q9NSA1 29-209 (ligand)
chain: GHPIPDSSPLLQFGGQVRQRYLYTDDAQQTEAHLEIREDGTVGGAADQSPESLLQLKALKPGVIQILGVKTSRFLCQRPDGALYGSLHFDPEACSFRELLLEDGYNVYQSEAHGLPLHLPGNKSRDPAPRGPARFLPLPGLPPAPPEPPGILAPQPPDVGSSDPLSMVGPSQGRSPSYAS
B2: FGF21 N149-A162 deleted and replaced by GSHSGS (SEQ ID NO: 138), Q9NSA1 29-209 (ligand)
chain: GHPIPDSSPLLQFGGQVRQRYLYTDDAQQTEAHLEIREDGTVGGAADQSPESLLQLKALKPGVIQILGVKTSRFLCQRPDGALYGSLHFDPEACSFRELLLEDGYNVYQSEAHGLPLHLPGGSHSGSRFLPLPGLPPAPPEPPGILAPQPPDVGSSDPLSMVGPSQGRSPSYAS
B3: FGF21, human (SEQ ID NO: 2), without N-terminal tag, Q9NSA1 29-209 (ligand)
chain: HPIPDSSPLLQFGGQVRQRYLYTDDAQQTEAHLEIREDGTVGGAADQSPESLLQLKALKPGVIQILGVKTSRFLCQRPDGALYGSLHFDPEACSFRELLLEDGYNVYQSEAHGLPLHLPGNKSPHRDPAPRGPARFLPLPGLPPAPPEPPGILAPQPPDVGSSDPLSMVGPSQGRSPSYAS
B4: FGF21 A162Y (SEQ ID NO: 151), Q9NSA1 29-209 (ligand)
chain: GHPIPDSSPLLQFGGQVRQRYLYTDDAQQTEAHLEIREDGTVGGAADQSPESLLQLKALKPGVIQILGVKTSRFLCQRPDGALYGSLHFDPEACSFRELLLEDGYNVYQSEAHGLPLHLPGNKSPHRDPAPRGPYRFLPLPGLPPAPPEPPGILAPQPPDVGSSDPLSMVGPSQGRSPSYAS
B5: FGF21 R154Q, D155L (SEQ ID NO: 130), Q9NSA1 29-209 (ligand)
chain: GHPIPDSSPLLQFGGQVRQRYLYTDDAQQTEAHLEIREDGTVGGAADQSPESLLQLKALKPGVIQILGVKTSRFLCQRPDGALYGSLHFDPEACSFRELLLEDGYNVYQSEAHGLPLHLPGNKSPHQLPAPRGPARFLPLPGLPPAPPEPPGILAPQPPDVGSSDPLSMVGPSQGRSPSYAS
B6: FGF21 G202T (SEQ ID NO: 154), Q9NSA1 29-209 (ligand)
chain: GHPIPDSSPLLQFGGQVRQRYLYTDDAQQTEAHLEIREDGTVGGAADQSPESLLQLKALKPGVIQILGVKTSRFLCQRPDGALYGSLHFDPEACSFRELLLEDGYNVYQSEAHGLPLHLPGNKSPHRDPAPRGPARFLPLPGLPPAPPEPPGILAPQPPDVGSSDPLSMVGPSQTRSPSYAS
B7: FGF21 R154Q, D155K (SEQ ID NO: 131), Q9NSA1 29-209 (ligand)
chain: GHPIPDSSPLLQFGGQVRQRYLYTDDAQQTEAHLEIREDGTVGGAADQSPESLLQLKALKPGVIQILGVKTSRFLCQRPDGALYGSLHFDPEACSFRELLLEDGYNVYQSEAHGLPLHLPGNKSPHQKPAPRGPARFLPLPGLPPAPPEPPGILAPQPPDVGSSDPLSMVGPSQGRSPSYAS
B8: G-FGF21 (SEQ ID NO: 3), without N-terminal tag, Q9NSA1 29-209 (ligand)
chain: GHPIPDSSPLLQFGGQVRQRYLYTDDAQQTEAHLEIREDGTVGGAADQSPESLLQLKALKPGVIQILGVKTSRFLCQRPDGALYGSLHFDPEACSFRELLLEDGYNVYQSEAHGLPLHLPGNKSPHRDPAPRGPARFLPLPGLPPAPPEPPGILAPQPPDVGSSDPLSMVGPSQGRSPSYAS
B9: FGF21 R159H (SEQ ID NO: 152), Q9NSA1 29-209 (ligand)
chain: GHPIPDSSPLLQFGGQVRQRYLYTDDAQQTEAHLEIREDGTVGGAADQSPESLLQLKALKPGVIQILGVKTSRFLCQRPDGALYGSLHFDPEACSFRELLLEDGYNVYQSEAHGLPLHLPGNKSPHRDPAPHGPARFLPLPGLPPAPPEPPGILAPQPPDVGSSDPLSMVGPSQGRSPSYAS
B10: FGF21 D155Y (SEQ ID NO: 126), Q9NSA1 29-209 (ligand)
chain: GHPIPDSSPLLQFGGQVRQRYLYTDDAQQTEAHLEIREDGTVGGAADQSPESLLQLKALKPGVIQILGVKTSRFLCQRPDGALYGSLHFDPEACSFRELLLEDGYNVYQSEAHGLPLHLPGNKSPHRYPAPRGPARFLPLPGLPPAPPEPPGILAPQPPDVGSSDPLSMVGPSQGRSPSYAS
B11: FGF21 H153Y, R154K, D155N, P156K, A157G (SEQ ID NO: 134), Q9NSA1 29-209 (ligand)
chain: GHPIPDSSPLLQFGGQVRQRYLYTDDAQQTEAHLEIREDGTVGGAADQSPESLLQLKALKPGVIQILGVKTSRFLCQRPDGALYGSLHFDPEACSFRELLLEDGYNVYQSEAHGLPLHLPGNKSPYKNKGPRGPARFLPLPGLPPAPPEPPGILAPQPPDVGSSDPLSMVGPSQGRSPSYAS
B12: FGF21 D155E (SEQ ID NO: 128), Q9NSA1 29-209 (ligand)
chain: GHPIPDSSPLLQFGGQVRQRYLYTDDAQQTEAHLEIREDGTVGGAADQSPESLLQLKALKPGVIQILGVKTSRFLCQRPDGALYGSLHFDPEACSFRELLLEDGYNVYQSEAHGLPLHLPGNKSPHREPAPRGPARFLPLPGLPPAPPEPPGILAPQPPDVGSSDPLSMVGPSQGRSPSYAS
B13: FGF21 D155K (SEQ ID NO: 125), Q9NSA1 29-209 (ligand)
chain: GHPIPDSSPLLQFGGQVRQRYLYTDDAQQTEAHLEIREDGTVGGAADQSPESLLQLKALKPGVIQILGVKTSRFLCQRPDGALYGSLHFDPEACSFRELLLEDGYNVYQSEAHGLPLHLPGNKSPHRKPAPRGPARFLPLPGLPPAPPEPPGILAPQPPDVGSSDPLSMVGPSQGRSPSYAS
B14: FGF21 K150H (SEQ ID NO: 139), Q9NSA1 29-209 (ligand)
chain: GHPIPDSSPLLQFGGQVRQRYLYTDDAQQTEAHLEIREDGTVGGAADQSPESLLQLKALKPGVIQILGVKTSRFLCQRPDGALYGSLHFDPEACSFRELLLEDGYNVYQSEAHGLPLHLPGNHSPHRDPAPRGPARFLPLPGLPPAPPEPPGILAPQPPDVGSSDPLSMVGPSQGRSPSYAS
B15: FGF21 D155P (SEQ ID NO: 127), Q9NSA1 29-209 (ligand)
chain: GHPIPDSSPLLQFGGQVRQRYLYTDDAQQTEAHLEIREDGTVGGAADQSPESLLQLKALKPGVIQILGVKTSRFLCQRPDGALYGSLHFDPEACSFRELLLEDGYNVYQSEAHGLPLHLPGNKSPHRPPAPRGPARFLPLPGLPPAPPEPPGILAPQPPDVGSSDPLSMVGPSQGRSPSYAS
B16: FGF21 D155L (SEQ ID NO: 124), Q9NSA1 29-209 (ligand)
chain: GHPIPDSSPLLQFGGQVRQRYLYTDDAQQTEAHLEIREDGTVGGAADQSPESLLQLKALKPGVIQILGVKTSRFLCQRPDGALYGSLHFDPEACSFRELLLEDGYNVYQSEAHGLPLHLPGNKSPHRLPAPRGPARFLPLPGLPPAPPEPPGILAPQPPDVGSSDPLSMVGPSQGRSPSYAS
B17: FGF21 H153Q, R154Q, D155N, A157V, R159K (SEQ ID NO: 132), Q9NSA1 29-209 (ligand)
chain: GHPIPDSSPLLQFGGQVRQRYLYTDDAQQTEAHLEIREDGTVGGAADQSPESLLQLKALKPGVIQILGVKTSRFLCQRPDGALYGSLHFDPEACSFRELLLEDGYNVYQSEAHGLPLHLPGNKSPQQNPVPKGPARFLPLPGLPPAPPEPPGILAPQPPDVGSSDPLSMVGPSQGRSPSYAS
B18: FGF21 K150H, P152L (SEQ ID NO: 140), Q9NSA1 29-209 (ligand)
chain: GHPIPDSSPLLQFGGQVRQRYLYTDDAQQTEAHLEIREDGTVGGAADQSPESLLQLKALKPGVIQILGVKTSRFLCQRPDGALYGSLHFDPEACSFRELLLEDGYNVYQSEAHGLPLHLPGNHSLHRDPAPRGPARFLPLPGLPPAPPEPPGILAPQPPDVGSSDPLSMVGPSQGRSPSYAS
B19: FGF21 P152A, H153K, R154K, D155E, P156A, A157S, R159Q (SEQ ID NO: 133), Q9NSA1 29-209 (ligand)
chain: GHPIPDSSPLLQFGGQVRQRYLYTDDAQQTEAHLEIREDGTVGGAADQSPESLLQLKALKPGVIQILGVKTSRFLCQRPDGALYGSLHFDPEACSFRELLLEDGYNVYQSEAHGLPLHLPGNKSAKKEASPQGPARFLPLPGLPPAPPEPPGILAPQPPDVGSSDPLSMVGPSQGRSPSYAS
B20: FGF21 S200M (SEQ ID NO: 153), Q9NSA1 29-209 (ligand)
chain: GHPIPDSSPLLQFGGQVRQRYLYTDDAQQTEAHLEIREDGTVGGAADQSPESLLQLKALKPGVIQILGVKTSRFLCQRPDGALYGSLHFDPEACSFRELLLEDGYNVYQSEAHGLPLHLPGNKSPHRDPAPRGPARFLPLPGLPPAPPEPPGILAPQPPDVGSSDPLSMVGPMQGRSPSYAS
B21: G-FGF21 with a leucine in position 174 (SEQ ID NO: 174), Q9NSA1 29-209 (ligand)
chain: GHPIPDSSPLLQFGGQVRQRYLYTDDAQQTEAHLEIREDGTVGGAADQSPESLLQLKALKPGVIQILGVKTSRFLCQRPDGALYGSLHFDPEACSFRELLLEDGYNVYQSEAHGLPLHLPGNKSPHRDPAPRGPARFLPLPGLPPALPEPPGILAPQPPDVGSSDPLSMVGPSQGRSPSYAS
B22: FGF21 D155N (SEQ ID NO: 129), Q9NSA1 29-209 (ligand)
chain: GHPIPDSSPLLQFGGQVRQRYLYTDDAQQTEAHLEIREDGTVGGAADQSPESLLQLKALKPGVIQILGVKTSRFLCQRPDGALYGSLHFDPEACSFRELLLEDGYNVYQSEAHGLPLHLPGNKSPHRNPAPRGPARFLPLPGLPPAPPEPPGILAPQPPDVGSSDPLSMVGPSQGRSPSYAS
B23: FGF21 N149-R163 deleted and replaced by GSGS (SEQ ID NO: 136), Q9NSA1 29-209 (ligand)
chain: GHPIPDSSPLLQFGGQVRQRYLYTDDAQQTEAHLEIREDGTVGGAADQSPESLLQLKALKPGVIQILGVKTSRFLCQRPDGALYGSLHFDPEACSFRELLLEDGYNVYQSEAHGLPLHLPGGSGSFLPLPGLPPAPPEPPGILAPQPPDVGSSDPLSMVGPSQGRSPSYAS
B24: FGF21 N149-A162 deleted and replaced by GSHSG (SEQ ID NO: 137), Q9NSA1 29-209 (ligand)
chain: GHPIPDSSPLLQFGGQVRQRYLYTDDAQQTEAHLEIREDGTVGGAADQSPESLLQLKALKPGVIQILGVKTSRFLCQRPDGALYGSLHFDPEACSFRELLLEDGYNVYQSEAHGLPLHLPGGSHSGRFLPLPGLPPAPPEPPGILAPQPPDVGSSDPLSMVGPSQGRSPSYAS
B25: FGF21 G202-R203 deleted (SEQ ID NO: 157), Q9NSA1 29-209 (ligand)
chain: GHPIPDSSPLLQFGGQVRQRYLYTDDAQQTEAHLEIREDGTVGGAADQSPESLLQLKALKPGVIQILGVKTSRFLCQRPDGALYGSLHFDPEACSFRELLLEDGYNVYQSEAHGLPLHLPGNKSPHRDPAPRGPARFLPLPGLPPAPPEPPGILAPQPPDVGSSDPLSMVGPSQSPSYAS
B26: FGF21 R159-R163 deleted and replaced by HE (SEQ ID NO: 150), Q9NSA1 29-209 (ligand)
chain: GHPIPDSSPLLQFGGQVRQRYLYTDDAQQTEAHLEIREDGTVGGAADQSPESLLQLKALKPGVIQILGVKTSRFLCQRPDGALYGSLHFDPEACSFRELLLEDGYNVYQSEAHGLPLHLPGNKSPHRDPAPHEFLPLPGLPPAPPEPPGILAPQPPDVGSSDPLSMVGPSQGRSPSYAS

The binders below were run against human FGFR1c together with human beta-Klotho (KLB), stably expressed on CHO Flp-In cells (human), P11362 (assay: cell-based or functional assay).
Chain of human FGFR1c together with human beta-Klotho (KLB), stably expressed on CHO Flp-In cells (human), P11362 (P11362 22-822, chain 1 of 2): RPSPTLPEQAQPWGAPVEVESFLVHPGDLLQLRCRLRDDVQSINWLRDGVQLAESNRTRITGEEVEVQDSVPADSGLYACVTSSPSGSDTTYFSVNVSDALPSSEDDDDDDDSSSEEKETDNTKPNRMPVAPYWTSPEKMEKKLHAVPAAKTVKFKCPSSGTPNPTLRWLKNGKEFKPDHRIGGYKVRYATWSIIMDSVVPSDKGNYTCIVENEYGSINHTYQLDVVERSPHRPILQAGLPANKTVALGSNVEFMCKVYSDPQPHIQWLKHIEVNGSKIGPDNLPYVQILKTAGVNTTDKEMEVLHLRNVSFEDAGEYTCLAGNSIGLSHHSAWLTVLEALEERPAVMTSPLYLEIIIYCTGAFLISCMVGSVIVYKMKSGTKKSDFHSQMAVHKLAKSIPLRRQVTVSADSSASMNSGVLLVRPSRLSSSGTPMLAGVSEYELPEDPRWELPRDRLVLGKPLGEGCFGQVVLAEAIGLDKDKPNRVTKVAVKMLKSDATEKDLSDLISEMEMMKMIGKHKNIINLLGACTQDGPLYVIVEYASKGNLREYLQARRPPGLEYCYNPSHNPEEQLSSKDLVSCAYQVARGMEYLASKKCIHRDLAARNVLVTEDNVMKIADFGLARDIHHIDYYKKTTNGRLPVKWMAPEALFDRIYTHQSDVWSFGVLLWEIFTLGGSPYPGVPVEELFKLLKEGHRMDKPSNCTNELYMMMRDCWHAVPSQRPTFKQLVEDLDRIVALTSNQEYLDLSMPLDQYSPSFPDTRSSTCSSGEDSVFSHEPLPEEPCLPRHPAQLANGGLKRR
Chain of human FGFR1c together with human beta-Klotho (KLB), stably expressed on CHO Flp-In cells (human), P11362 (Q86Z14 whole entry, chain 2 of 2, further chain): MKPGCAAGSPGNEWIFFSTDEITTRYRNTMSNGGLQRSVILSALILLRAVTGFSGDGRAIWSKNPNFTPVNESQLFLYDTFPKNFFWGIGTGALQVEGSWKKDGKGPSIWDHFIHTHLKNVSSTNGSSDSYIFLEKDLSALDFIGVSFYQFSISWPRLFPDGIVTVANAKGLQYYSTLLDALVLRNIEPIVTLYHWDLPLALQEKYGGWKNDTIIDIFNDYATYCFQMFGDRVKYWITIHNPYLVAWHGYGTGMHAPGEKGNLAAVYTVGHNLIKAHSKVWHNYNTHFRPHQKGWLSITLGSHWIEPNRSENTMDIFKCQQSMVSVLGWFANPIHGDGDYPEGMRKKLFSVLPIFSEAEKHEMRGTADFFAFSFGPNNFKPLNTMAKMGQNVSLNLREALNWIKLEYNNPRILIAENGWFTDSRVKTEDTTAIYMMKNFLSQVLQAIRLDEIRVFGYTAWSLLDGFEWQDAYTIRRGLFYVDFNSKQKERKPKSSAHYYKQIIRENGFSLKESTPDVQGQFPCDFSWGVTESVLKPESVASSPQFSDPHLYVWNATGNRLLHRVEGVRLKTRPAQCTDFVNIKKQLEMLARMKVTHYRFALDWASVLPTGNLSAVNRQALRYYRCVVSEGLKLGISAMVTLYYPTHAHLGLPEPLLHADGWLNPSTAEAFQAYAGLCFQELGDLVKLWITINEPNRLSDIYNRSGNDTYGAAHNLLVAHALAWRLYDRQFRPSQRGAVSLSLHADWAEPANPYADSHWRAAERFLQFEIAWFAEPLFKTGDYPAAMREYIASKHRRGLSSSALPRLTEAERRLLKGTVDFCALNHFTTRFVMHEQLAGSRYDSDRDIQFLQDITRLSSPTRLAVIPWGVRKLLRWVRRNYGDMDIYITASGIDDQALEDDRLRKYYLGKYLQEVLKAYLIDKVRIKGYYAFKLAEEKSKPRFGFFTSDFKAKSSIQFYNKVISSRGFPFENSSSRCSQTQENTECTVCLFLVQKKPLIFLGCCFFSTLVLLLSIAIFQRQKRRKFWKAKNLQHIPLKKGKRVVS
B1 gave a pERK ICW EC50 of 0.21 nmol/L. For B2, the pERK ICW EC50 was 0.19 nmol/L. For B3, the pERK ICW EC50 was 0.17 nmol/L, the pFGFR ICW EC50 was 4.49 nmol/L and the pFGFR ICW Emax was 146%. B4 gave a pERK ICW EC50 of 0.08 nmol/L. With B5 the pERK ICW EC50 was 0.14 nmol/L. For B6, the pERK ICW EC50 was 0.01 nmol/L. B7 was tested, and the pERK ICW EC50 was 0.39 nmol/L. Work on B8 yielded a pERK ICW EC50 of 0.24 nmol/L. In the case of B9, the pERK ICW EC50 is reported as 0.17 nmol/L. For B10, the pERK ICW EC50 was 0.07 nmol/L. B11 showed a pERK ICW EC50 of 0.05 nmol/L. Work on B12 yielded a pERK ICW EC50 of 0.13 nmol/L. B13 showed a pERK ICW EC50 of 0.06 nmol/L. With B14 the pERK ICW EC50 was 0.15 nmol/L. B15 gave a pERK ICW EC50 of 0.08 nmol/L. Binder B16 has a pERK ICW EC50 of 0.11 nmol/L. For B17, the pERK ICW EC50 was 0.23 nmol/L. B18 showed a pERK ICW EC50 of 0.13 nmol/L. B19 showed a pERK ICW EC50 of 0.24 nmol/L. B20 showed a pERK ICW EC50 of 0.17 nmol/L. In the case of B21, the In-Cell Western EC50 is reported as 0.21 nM. Work on B22 yielded a pERK ICW EC50 of 0.06 nmol/L. With B23 the pERK ICW EC50 was 3.69 nmol/L. B24 showed a pERK ICW EC50 of 0.57 nmol/L. B25 showed a pERK ICW EC50 of 1.63 nmol/L. Binder B26 has a pERK ICW EC50 of 0.98 nmol/L.
